Experimental data published in patent US20050221433A1 (Regeneron, published 2005).

B1: hIL18BPa (1-192) (C49S, C129S).His (receptor)
chain: TPVSQTTTAATASVRSTKDPSPSQPPVFPAAKQCPALEVTWPEVEVPLNGTLSLSCVACSRFPNFSILYWLGNGSFIEHLPGRLWEGSTSRERGSTGTQLSKALVLEQLTPALHSTNFSCVLVDPEQVVQRHVVLAQLWAGLRATLPPTQEALPSSHSSPQQQGTGHHHHHHHH
B2: hIL18BPa (58-192) (C129S).His (receptor)
chain: AAKQCPALEVTWPEVEVPLNGTLSLSCVACSRFPNFSILYWLGNGSFIEHLPGRLWEGSTSRERGSTGTQLSKALVLEQLTPALHSTNFSCVLVDPEQVVQRHVVLAQLWAGLRATLPPTQEALPSSHSSPQQQGHHHHHHHH
B3: hIL18BPa (1-181) (C49S, C129S).His (receptor)
chain: TPVSQTTTAATASVRSTKDPSPSQPPVFPAAKQCPALEVTWPEVEVPLNGTLSLSCVACSRFPNFSILYWLGNGSFIEHLPGRLWEGSTSRERGSTGTQLSKALVLEQLTPALHSTNFSCVLVDPEQVVQRHVVLAQLWAGLRATLPPTQEALTGHHHHHHHH
B4: hIL18BPa (72-192).TG.hFc (Fc fusion)
chain: VEVPLNGTLSLSCVACSRFPNFSILYWLGNGSFIEHLPGRLWEGSTSRERGSTGTQLCKALVLEQLTPALHSTNFSCVLVDPEQVVQRHVVLAQLWAGLRATLPPTQEALPSSHSSPQQQGTG
notes: not shown: hFc (human Fc)

Columns and labels:
recombinant human IL-18 [1] = molecular target: T1, recombinant human IL-18 (human, UniProt Q14116 37-193); experiment: cell-based or functional assay
T1 sequence (looked up): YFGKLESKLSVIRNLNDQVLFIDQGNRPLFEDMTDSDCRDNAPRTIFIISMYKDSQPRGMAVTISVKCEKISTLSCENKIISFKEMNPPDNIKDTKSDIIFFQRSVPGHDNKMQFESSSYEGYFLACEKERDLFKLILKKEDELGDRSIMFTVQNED

recombinant human IL-18 [2] = molecular target: T1, recombinant human IL-18; experiment: printed in the IC50 (M) column of Table 2 (HEK293/NFkB-luciferase hIL-18 inhibition bioassay, CHO transient supernatant)
From the text: hIL-18 Inhibition. The HEK293/NFkB-luciferase bioassay is used to determine the ability of the IL-18-specific polypeptides of the invention to block the activity of human IL-18 (hIL-18). Human embryonic kidney 293, HEK293, cells, were transfected with an NFκB-luciferase reporter plasmid. By placing an NFκB promoter element upstream of the luciferase gene one can monitor NFκB activity in cells. Because IL-18 signaling is mediated by NFκB, when cells containing the 293/NFκB luciferase construct and the IL-18 receptors are stimulated with hIL-18, the luciferase gene is expressed and luciferase activity can be detected in cell lysates. A stable, transfected, cell line, HEK293/D9, was selected for good response to IL-1 as detected by luciferase activity. This line was transfected with the human IL-18Rα (IL-IRrp) and IL-18Rβ (IL1RAcPL) receptors and stable cell lines that responded to IL-18 with a strong luciferase signal were isolated. These cells are called hIL-18-NFκB-luciferase cells.
For the assay, hIL-18-NFκB-Luciferase cells were suspended at 1.25×10⁵ cells per ml in medium and 0.08 ml of cells plated (10,000 cells per well) into the wells of a 96 well tissue culture plate. […] Plates were incubated at room temperature for ˜10 minutes and then read on a Victor multilabel counter (Luminescence 1 sec/well).

| Binder | IC50 (M), HEK293/NFkB-luciferase bioassay (recombinant human IL-18 [1]) [M] | binding result (recombinant human IL-18 [2]) |
| --- | --- | --- |
| B1 | 8.59e-11 | – |
| B2 | 3.9e-11 | – |
| B3 | 1.23e-10 | – |
| B4 | – | no binding |
